In article PMC10957929:
Substitutions are numbered along the chain they refer to.

Assays:
[1] = target: T1, GST-DRG9Nip (N186S) N186S (Oryza sativa ssp. japonica cv. Nipponbare) (UniProt Q69P58); assay: EMSA; conditions: 20 mM Hepes pH 7.5, 20 mM KCl2 (so in the source), 1 mM MgCl2, 10 mM ZnCl2, 5 mM DTT, 10% glycerol, 0.1% NP-40, room temperature, 1 h; 6% native PAGE, 0.5x TBE
T1 sequence: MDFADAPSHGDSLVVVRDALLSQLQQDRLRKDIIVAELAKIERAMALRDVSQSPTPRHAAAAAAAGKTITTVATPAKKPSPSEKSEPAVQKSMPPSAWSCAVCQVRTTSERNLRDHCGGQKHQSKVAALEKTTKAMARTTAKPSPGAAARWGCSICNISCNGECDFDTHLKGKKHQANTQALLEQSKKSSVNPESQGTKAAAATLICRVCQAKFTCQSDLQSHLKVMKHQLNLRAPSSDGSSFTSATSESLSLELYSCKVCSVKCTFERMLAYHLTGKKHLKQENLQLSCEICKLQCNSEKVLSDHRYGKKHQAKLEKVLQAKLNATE

[2] = target: T2, GST-DRG9Nip (F267G) F267G (Oryza sativa ssp. japonica cv. Nipponbare) (UniProt Q69P58); assay: EMSA; conditions: 20 mM Hepes pH 7.5, 20 mM KCl2 (so in the source), 1 mM MgCl2, 10 mM ZnCl2, 5 mM DTT, 10% glycerol, 0.1% NP-40, room temperature, 1 h; 6% native PAGE, 0.5x TBE
T2 sequence: T1 sequence with S186N, F267G

GGGCUCAAAUUAAUUAGCCAGUGAAAAAUCAAAUUACAGAGUUGCUUAAUUUUUUUACUAGUAGAACGCAACAGUAAAAAGAAUUAACAGCAGUGAAUUAUUAGUUAAUUAGCUAGGGAGUUGAAAUAGUUUAGCGGUCAUGCACUACUGAUUUUUAAUUAGUGCAGACAACGACCGCGUGUGUGUAUAUGCAUGUAUACCUUUUACUGUAUCUUCAGAUUGUGUAUAUAUAUCAUAUAUGUACAGGAAAAGAUUUAUAUAUCAUACAUAUUUUGUUGU [OsNCED4 3'-UTR RNA]
binding [1]: binds | binding [2]: binds more weakly
